Residue numbers refer to the chain shown, from its start.
Molecular target: T1, IL-2R CD122-CD132 on Jurkat-PD1+ CD122+ cells (UniProt P14784 27-551; P31785 23-369)
T1 sequence (looked up) 1: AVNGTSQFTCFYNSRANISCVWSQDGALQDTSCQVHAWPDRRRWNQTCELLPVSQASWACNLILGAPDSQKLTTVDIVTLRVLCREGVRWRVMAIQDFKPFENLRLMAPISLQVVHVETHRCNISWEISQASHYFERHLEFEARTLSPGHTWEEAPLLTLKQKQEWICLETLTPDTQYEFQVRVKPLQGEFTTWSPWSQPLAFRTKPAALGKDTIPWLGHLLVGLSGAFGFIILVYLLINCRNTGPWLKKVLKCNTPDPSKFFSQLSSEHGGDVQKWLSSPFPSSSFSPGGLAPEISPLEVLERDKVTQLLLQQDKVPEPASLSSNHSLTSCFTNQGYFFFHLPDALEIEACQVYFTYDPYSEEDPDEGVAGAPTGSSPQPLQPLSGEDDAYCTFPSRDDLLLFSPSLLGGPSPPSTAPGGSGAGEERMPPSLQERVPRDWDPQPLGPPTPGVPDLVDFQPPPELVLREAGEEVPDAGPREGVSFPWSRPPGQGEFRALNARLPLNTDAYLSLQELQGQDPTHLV
T1 sequence (looked up) 2: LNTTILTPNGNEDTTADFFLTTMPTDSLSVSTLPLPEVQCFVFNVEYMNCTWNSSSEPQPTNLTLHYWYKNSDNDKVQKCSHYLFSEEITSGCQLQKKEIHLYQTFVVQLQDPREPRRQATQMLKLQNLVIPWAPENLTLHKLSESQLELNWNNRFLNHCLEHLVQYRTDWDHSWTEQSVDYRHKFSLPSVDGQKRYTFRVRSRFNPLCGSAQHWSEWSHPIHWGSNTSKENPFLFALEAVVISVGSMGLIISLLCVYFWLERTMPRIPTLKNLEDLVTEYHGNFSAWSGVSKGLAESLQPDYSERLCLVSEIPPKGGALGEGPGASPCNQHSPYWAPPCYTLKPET
Assay: cell-based or functional assay

B1: YPW986 (bispecific antibody)
chain 1: EVQLLESGGGLVQPGGSLRLSCAASGFTFSINAMTWVRQAPGKGLEWVSTISGSGFSTYYADSLKGRFTISRDNSKNTLYLQMNSLRAEDTAVYYCAKEVYGDYWGQGTLVTVSSASVAAPSVFIFPPSDEQLKSGTASVVCLLNNFYPREAKVQWKVDNALQSGNSQESVTEQDSKDSTYSLSSTLTLSKADYEKHKVYACEVTHQGLSSPVTKSFNRGECDKTHTCPPCPAPEAAGGPSVFLFPPKPKDTLMISRTPEVTCVVVDVSHEDPEVKFNWYVDGVEVHNAKTKPREEQYNSTYRVVSVLTVLHQDWLNGKEYKCKVSNKALAAPIEKTISKAKGQPREPQVYTLPPSREEMTKNQVSLTCLVKGFYPSDIAVEWESNGQPENNYKTTPPVLDSDGSFFLTSKLTVDKSRWQQGNVFSCSVMHEALHNHYTQKSLSLSPGK
chain 2: RSVLTQPPSASGTPGQRVSISCSGASSNIGSQSVFWYQQLPGTAPKLLIYSNNQRPSGVPDRFSGSKSGTSASLAISGLRSEDEADYYCAAWDDSLSIWVFGGGTKLTVLSSASTKGPSVFPLAPSSKSTSGGTAALGCLVKDYFPEPVTVSWNSGALTSGVHTFPAVLQSSGLYSLSSVVTVPSSSLGTQTYICNVNHKPSNTKVDKRVEPKSC
chain 3: EVQLVQSGAEVKKPGESLKISCKGSGYAFTNYLIEWVRQMPGKGLEWMGVINPGSGGTNYNEKFKGQVTISADKSISTAYLQWSSLKASDTAMYYCARWRGEGYYAYFDVWGQGTTVTVSSASTKGPSVFPLAPSSKSTSGGTAALGCLVKDYFPEPVTVSWNSGALTSGVHTFPAVLQSSGLYSLSSVVTVPSSSLGTQTYICNVNHKPSNTKVDKRVEPKSCDKTHTCPPCPAPEAAGGPSVFLFPPKPKDTLMISRTPEVTCVVVDVSHEDPEVKFNWYVDGVEVHNAKTKPREEQYNSTYRVVSVLTVLHQDWLNGKEYKCKVSNKALAAPIEKTISKAKGQPREPQVYTLPPSREEMTKNQVSLYCLVKGFYPSDIAVEWESNGQPENNYKTTPPVLDSDGSFFLYSKLTVDKSRWQQGNVFSCSVMHEALHNHYTQKSLSLSPGK
chain 4: not shown
EC50 value for pSTAT5 induction: 43.9 nM

B2: PXU588 (bispecific antibody)
chain 1: B1 chain 1
chain 2: B1 chain 2 with Q32S
chain 3: B1 chain 3
chain 4: not shown
EC50 value for pSTAT5 induction: 5.37 nM

B3: MDS446 (bispecific antibody, human IgG1, kappa, L234A L235A)
chain 1: QVQLVQSGAEVKKPGASVKVSCKASGYTFTNFYIHWVRQAPGQGLEWMGSIYPNYGITAYNQKFKDRVTMTVDTSTSTAYMELRSLRSDDTAVYYCARGYSYAMDYWGQGTTVTVSSASTKGPSVFPLAPSSKSTSGGTAALGCLVKDYFPEPVTVSWNSGALTSGVHTFPAVLQSSGLYSLSSVVTVPSSSLGTQTYICNVNHKPSNTKVDKRVEPKSCDKTHTCPPCPAPEAAGGPSVFLFPPKPKDTLMISRTPEVTCVVVDVSHEDPEVKFNWYVDGVEVHNAKTKPREEQYNSTYRVVSVLTVLHQDWLNGKEYKCKVSNKALAAPIEKTISKAKGQPREPQVYTLPPSREEMTKNQVSLTCLVKGFYPSDIAVEWESNGQPENNYKTTPPVLDSDGSFFLTSKLTVDKSRWQQGNVFSCSVMHEALHNHYTQKSLSLSPGK
chain 2: DIQMTQSPSSVSASVGDRVTITCSASQGISGDLNWYQQKPGKAPKLLIYHTSQLHSDVPSRFSGSGSGTDFTLTISSLQPEDFATYYCQGYSKDLLTFGGGTKLEIKRTVAAPSVFIFPPSDEQLKSGTASVVCLLNNFYPREAKVQWKVDNALQSGNSQESVTEQDSKDSTYSLSSTLTLSKADYEKHKVYACEVTHQGLSSPVTKSFNRGEC
chain 3: AIRLTQSPSSFSASTGDRVTITCKASQSVDYGGGNFHLRPRDLISNINVIVLELKGSETTFMCEYADETATIVEFLNRWITFSQSIISTLTPTSSSTKKTQLQLEHLLLDLQMILNGINNYKNPKLTRMLTFKFYMPKKATELKHLQCLEEELKPLEEVLNLAQSKGGGGDSYMNWYQQKPGKAPKLLIYAASNLESGVPSRFSGSGSGTDFTLTISSLQSEDFATYYCQQSNEDPYTFGGGTKVEIKGGGGSGGGGSGGGGSEVQLVQSGAEVKKPGESLKISCKGSGYAFTNYLIEWVRQMPGKGLEWMGVINPGSGGTNYNEKFKGQVTISADKSISTAYLQWSSLKASDTAMYYCARWRGEGYYAYFDVWGQGTTVTVSSGGGGSGGGGSQVQLVQSGAEVKKPGASVKVSCKASGYTFTNFYIHWVRQAPGQGLEWMGSIYPNYGITAYNQKFKDRVTMTVDTSTSTAYMELRSLRSDDTAVYYCARGYSYAMDYWGQGTTVTVSSASTKGPSVFPLAPSSKSTSGGTAALGCLVKDYFPEPVTVSWNSGALTSGVHTFPAVLQSSGLYSLSSVVTVPSSSLGTQTYICNVNHKPSNTKVDKRVEPKSCDKTHTCPPCPAPEAAGGPSVFLFPPKPKDTLMISRTPEVTCVVVDVSHEDPEVKFNWYVDGVEVHNAKTKPREEQYNSTYRVVSVLTVLHQDWLNGKEYKCKVSNKALAAPIEKTISKAKGQPREPQVYTLPPSREEMTKNQVSLYCLVKGFYPSDIAVEWESNGQPENNYKTTPPVLDSDGSFFLYSKLTVDKSRWQQGNVFSCSVMHEALHNHYTQKSLSLSPGK
EC50 value for pSTAT5 induction: 0.06 nM

B4: TMU471 (bispecific antibody, human IgG1, kappa, L234A L235A)
chain 1: B3 chain 1 with S50R
chain 2: B3 chain 2 with L54R
chain 3: B3 chain 3 with S444R
EC50 value for pSTAT5 induction: 0.06 nM

B5: QAB373 (bispecific antibody, human IgG1, kappa, L234A L235A)
chain 1: QVQLVQSGAEVKKPGASVKVSCKASGYTFTNFYIHWVRQAPGQGLEWMGSIYPNYGITAYNQKFKDRVTMTVDTSTSTAYMELRSLRSDDTAVYYCARGYSYAMDYWGQGTTVTVSSASVAAPSVFIFPPSDEQLKSGTASVVCLLNNFYPREAKVQWKVDNALQSGNSQESVTEQDSKDSTYSLSSTLTLSKADYEKHKVYACEVTHQGLSSPVTKSFNRGECDKTHTCPPCPAPEAAGGPSVFLFPPKPKDTLMISRTPEVTCVVVDVSHEDPEVKFNWYVDGVEVHNAKTKPREEQYNSTYRVVSVLTVLHQDWLNGKEYKCKVSNKALAAPIEKTISKAKGQPREPQVYTLPPSREEMTKNQVSLTCLVKGFYPSDIAVEWESNGQPENNYKTTPPVLDSDGSFFLTSKLTVDKSRWQQGNVFSCSVMHEALHNHYTQKSLSLSPGK
chain 2: DIQMTQSPSSVSASVGDRVTITCSASQGISGDLNWYQQKPGKAPKLLIYHTSQLHSDVPSRFSGSGSGTDFTLTISSLQPEDFATYYCQGYSKDLLTFGGGTKLEIKSSASTKGPSVFPLAPSSKSTSGGTAALGCLVKDYFPEPVTVSWNSGALTSGVHTFPAVLQSSGLYSLSSVVTVPSSSLGTQTYICNVNHKPSNTKVDKRVEPKSC
chain 3: B1 chain 3
chain 4: not shown
EC50 value for pSTAT5 induction: 0.07 nM

B6: RIB426 (bispecific antibody, human IgG1, kappa, L234A L235A)
chain 1: B5 chain 1 with S50R
chain 2: B5 chain 2 with L54R
chain 3: B1 chain 3
chain 4: not shown
EC50 value for pSTAT5 induction: 0.12 nM

B7: JLI141 (bispecific antibody, human IgG1, lambda, L234A L235A)
chain 1: EVQLLESGGGLVQPGGSLRLSCAASGFTFSINAMTWVRQAPGKGLEWVSTISGSGFSTYYADSLKGRFTISRDNSKNTLYLQMNSLRAEDTAVYYCAKEVYGDYWGQGTLVTVSSASTKGPSVFPLAPSSKSTSGGTAALGCLVKDYFPEPVTVSWNSGALTSGVHTFPAVLQSSGLYSLSSVVTVPSSSLGTQTYICNVNHKPSNTKVDKRVEPKSCDKTHTCPPCPAPEAAGGPSVFLFPPKPKDTLMISRTPEVTCVVVDVSHEDPEVKFNWYVDGVEVHNAKTKPREEQYNSTYRVVSVLTVLHQDWLNGKEYKCKVSNKALAAPIEKTISKAKGQPREPQVYTLPPSREEMTKNQVSLTCLVKGFYPSDIAVEWESNGQPENNYKTTPPVLDSDGSFFLTSKLTVDKSRWQQGNVFSCSVMHEALHNHYTQKSLSLSPGK
chain 2: not shown
chain 3: AIRLTQSPSSFSASTGDRVTITCKASQSVDYGGGNFHLRPRDLISNINVIVLELKGSETTFMCEYADETATIVEFLNRWITFSQSIISTLTPTSSSTKKTQLQLEHLLLDLQMILNGINNYKNPKLTRMLTFKFYMPKKATELKHLQCLEEELKPLEEVLNLAQSKGGGGDSYMNWYQQKPGKAPKLLIYAASNLESGVPSRFSGSGSGTDFTLTISSLQSEDFATYYCQQSNEDPYTFGGGTKVEIKGGGGSGGGGSGGGGSEVQLVQSGAEVKKPGESLKISCKGSGYAFTNYLIEWVRQMPGKGLEWMGVINPGSGGTNYNEKFKGQVTISADKSISTAYLQWSSLKASDTAMYYCARWRGEGYYAYFDVWGQGTTVTVSSGGGGSGGGGSEVQLLESGGGLVQPGGSLRLSCAASGFTFSINAMTWVRQAPGKGLEWVSTISGSGFSTYYADSLKGRFTISRDNSKNTLYLQMNSLRAEDTAVYYCAKEVYGDYWGQGTLVTVSSASTKGPSVFPLAPSSKSTSGGTAALGCLVKDYFPEPVTVSWNSGALTSGVHTFPAVLQSSGLYSLSSVVTVPSSSLGTQTYICNVNHKPSNTKVDKRVEPKSCDKTHTCPPCPAPEAAGGPSVFLFPPKPKDTLMISRTPEVTCVVVDVSHEDPEVKFNWYVDGVEVHNAKTKPREEQYNSTYRVVSVLTVLHQDWLNGKEYKCKVSNKALAAPIEKTISKAKGQPREPQVYTLPPSREEMTKNQVSLYCLVKGFYPSDIAVEWESNGQPENNYKTTPPVLDSDGSFFLYSKLTVDKSRWQQGNVFSCSVMHEALHNHYTQKSLSLSPGK
EC50 value for pSTAT5 induction: 0.2 nM

From patent EP4491631A1 (Anaveon AG, dated 2025)
